The values that follow come from PMC6787221.

Assay [1] deals with STAM2 UIM-SH3 with the linker shortened by 14 amino acids (human). Put plainly: NMR titration; 1H-15N HSQC chemical shift perturbation of 15N-labelled US-WT, US-Δ1, US-Δ2 upon addition of unlabelled Lys63-Ub2 until saturation; 15 °C, 20 mM sodium phosphate pH 6.8, 10% D2O, 0.02% NaN3; 2:1 model (each domain interacts with one unit of Lys63-Ub2).
Assay [2] has as its target STAM2 UIM-SH3 with the linker shortened by 7 amino acids (human). Described as above.

Broadly, the KD is the concentration at which binding is half-saturated.

As to “Lys63-linked diubiquitin (from UniProt P0CG48 1-76) (complex)”, the KD at the SH3 domain in assay [1] was 483 µM; in assay [2] it was 253 µM.
